The numbers were not newly measured in paper PMC8226686, which cites them from elsewhere.

One may read the Kd as the equilibrium constant for the complex coming apart.

In the series the target is insulin receptor (Homo sapiens) (UniProt P06213).
Chain of UniProt P06213 (P06213 763-1382): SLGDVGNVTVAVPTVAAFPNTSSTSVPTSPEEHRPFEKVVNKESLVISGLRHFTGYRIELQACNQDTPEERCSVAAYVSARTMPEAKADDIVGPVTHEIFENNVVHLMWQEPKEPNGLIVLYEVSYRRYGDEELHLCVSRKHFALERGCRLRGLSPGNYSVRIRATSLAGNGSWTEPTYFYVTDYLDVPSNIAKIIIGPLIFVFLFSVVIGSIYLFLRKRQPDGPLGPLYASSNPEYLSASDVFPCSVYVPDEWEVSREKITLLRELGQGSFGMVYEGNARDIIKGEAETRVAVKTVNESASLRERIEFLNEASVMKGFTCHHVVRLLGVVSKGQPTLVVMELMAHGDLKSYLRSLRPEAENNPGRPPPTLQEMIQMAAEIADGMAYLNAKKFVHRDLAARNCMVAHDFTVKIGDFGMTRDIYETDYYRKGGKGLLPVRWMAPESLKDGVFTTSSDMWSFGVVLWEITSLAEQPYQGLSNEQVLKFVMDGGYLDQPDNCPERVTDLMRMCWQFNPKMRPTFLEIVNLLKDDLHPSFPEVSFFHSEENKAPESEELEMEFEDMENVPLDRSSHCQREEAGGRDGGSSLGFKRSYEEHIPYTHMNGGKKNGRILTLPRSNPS

Chain of insulin (P01308 90-110): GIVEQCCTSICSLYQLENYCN

On to insulin (from UniProt P01308), for which the Kd was 2.2 nM.
